Results on 2 sequences are retold here after the supplement of paper PMC6379048.

Holding throughout (test): Kd (EC50 corrected by depletion factor)
Data set [1] addresses T1, CPSF1 (UniProt Q10570).
T1 sequence: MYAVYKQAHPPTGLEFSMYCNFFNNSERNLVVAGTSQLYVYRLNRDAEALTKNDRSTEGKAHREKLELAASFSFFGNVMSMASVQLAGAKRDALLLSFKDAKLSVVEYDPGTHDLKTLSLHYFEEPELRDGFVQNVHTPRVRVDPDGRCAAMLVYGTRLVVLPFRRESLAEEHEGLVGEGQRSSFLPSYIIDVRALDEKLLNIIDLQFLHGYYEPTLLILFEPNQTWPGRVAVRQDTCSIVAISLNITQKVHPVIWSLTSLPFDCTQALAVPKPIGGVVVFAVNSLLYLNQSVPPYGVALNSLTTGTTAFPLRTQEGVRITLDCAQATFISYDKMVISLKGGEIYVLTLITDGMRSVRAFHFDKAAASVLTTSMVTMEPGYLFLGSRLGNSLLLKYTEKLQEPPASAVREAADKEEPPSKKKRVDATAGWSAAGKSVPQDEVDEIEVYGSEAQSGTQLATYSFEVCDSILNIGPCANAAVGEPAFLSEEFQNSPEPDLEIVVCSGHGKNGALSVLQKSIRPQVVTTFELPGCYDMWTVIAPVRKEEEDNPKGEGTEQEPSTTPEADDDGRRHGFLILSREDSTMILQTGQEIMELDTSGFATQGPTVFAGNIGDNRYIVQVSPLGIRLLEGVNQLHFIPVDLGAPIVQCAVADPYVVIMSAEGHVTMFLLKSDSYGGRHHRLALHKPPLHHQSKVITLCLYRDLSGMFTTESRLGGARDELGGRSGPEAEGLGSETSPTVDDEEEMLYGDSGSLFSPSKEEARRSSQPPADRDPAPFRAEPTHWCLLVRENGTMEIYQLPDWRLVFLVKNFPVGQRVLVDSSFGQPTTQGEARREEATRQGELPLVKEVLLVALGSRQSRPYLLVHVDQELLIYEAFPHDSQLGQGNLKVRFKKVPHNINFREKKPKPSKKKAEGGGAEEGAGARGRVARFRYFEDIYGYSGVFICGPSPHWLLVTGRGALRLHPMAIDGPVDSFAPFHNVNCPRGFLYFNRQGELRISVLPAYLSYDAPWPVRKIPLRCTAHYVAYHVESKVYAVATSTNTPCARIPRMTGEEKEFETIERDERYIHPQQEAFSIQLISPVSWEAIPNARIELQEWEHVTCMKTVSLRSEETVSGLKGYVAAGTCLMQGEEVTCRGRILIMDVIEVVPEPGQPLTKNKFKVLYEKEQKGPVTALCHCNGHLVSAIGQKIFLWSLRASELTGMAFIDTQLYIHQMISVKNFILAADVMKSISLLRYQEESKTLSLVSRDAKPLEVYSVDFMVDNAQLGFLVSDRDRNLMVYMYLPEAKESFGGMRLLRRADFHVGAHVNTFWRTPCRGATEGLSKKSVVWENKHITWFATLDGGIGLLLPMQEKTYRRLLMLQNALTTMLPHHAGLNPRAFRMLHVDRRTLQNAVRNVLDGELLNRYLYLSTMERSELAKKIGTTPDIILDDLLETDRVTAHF
The procedure, abridged: (§1)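 HEK293-FT lysate (2.5 mg protein/well) was pre-incubated 1 h at 4°C with free RNA oligos (0 nM to 30 μM), then 30 min at 4°C with the same 5′-amino-C6 oligos coupled to NHS-Sepharose beads. Bound proteins were quantified by label-free LC-MS/MS in three biological replicates and two independent experiments, and normalised to the water control. EC50 came from a four-parameter log-logistic fit; Kd is EC50 times a protein-dependent depletion factor.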

The target of data set [2] is HNRNPAB (UniProt Q99729). The method, boiled down:
as §1

Data set [3] concerns the target T2, CHERP (UniProt Q8IWX8).
T2 sequence: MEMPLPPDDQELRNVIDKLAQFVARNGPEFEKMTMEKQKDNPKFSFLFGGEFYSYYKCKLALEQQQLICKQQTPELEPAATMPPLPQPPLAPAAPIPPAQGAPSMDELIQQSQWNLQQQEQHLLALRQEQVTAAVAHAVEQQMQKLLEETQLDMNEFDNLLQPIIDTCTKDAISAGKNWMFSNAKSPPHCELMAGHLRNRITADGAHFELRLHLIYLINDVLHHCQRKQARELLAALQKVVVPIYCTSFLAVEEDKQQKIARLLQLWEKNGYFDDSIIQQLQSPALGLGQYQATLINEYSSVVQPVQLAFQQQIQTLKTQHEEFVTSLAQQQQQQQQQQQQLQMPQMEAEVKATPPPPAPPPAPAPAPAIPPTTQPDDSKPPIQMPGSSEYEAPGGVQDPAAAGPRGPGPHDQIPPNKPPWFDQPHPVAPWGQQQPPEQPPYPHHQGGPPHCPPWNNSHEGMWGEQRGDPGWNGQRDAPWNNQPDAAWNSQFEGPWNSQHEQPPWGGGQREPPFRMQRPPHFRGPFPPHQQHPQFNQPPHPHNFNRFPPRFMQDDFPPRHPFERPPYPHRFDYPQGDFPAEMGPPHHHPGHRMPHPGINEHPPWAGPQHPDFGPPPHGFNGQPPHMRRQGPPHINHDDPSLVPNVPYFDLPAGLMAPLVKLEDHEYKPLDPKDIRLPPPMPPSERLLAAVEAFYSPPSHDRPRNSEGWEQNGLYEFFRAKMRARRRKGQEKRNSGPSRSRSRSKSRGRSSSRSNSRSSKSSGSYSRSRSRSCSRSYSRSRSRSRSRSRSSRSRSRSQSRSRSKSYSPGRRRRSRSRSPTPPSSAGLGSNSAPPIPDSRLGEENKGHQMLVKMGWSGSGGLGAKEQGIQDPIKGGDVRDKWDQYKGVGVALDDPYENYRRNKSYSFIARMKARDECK
The method, boiled down: as §1

HNRNPAB, sequence (Q99729 whole entry): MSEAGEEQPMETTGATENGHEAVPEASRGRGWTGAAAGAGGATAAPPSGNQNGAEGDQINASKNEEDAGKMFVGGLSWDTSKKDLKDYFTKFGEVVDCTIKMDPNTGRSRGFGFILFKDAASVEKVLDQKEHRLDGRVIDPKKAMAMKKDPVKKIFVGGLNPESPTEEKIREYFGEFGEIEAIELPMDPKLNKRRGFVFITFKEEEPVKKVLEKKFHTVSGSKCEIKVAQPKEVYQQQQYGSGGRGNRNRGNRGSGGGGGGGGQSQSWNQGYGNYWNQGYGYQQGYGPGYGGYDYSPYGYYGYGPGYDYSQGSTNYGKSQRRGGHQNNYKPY

AAUAAA: the results for the Kd in data set [1], in data set [2] and in data set [3] were 6.97 nM, 464 nM and 255 nM, respectively.
The corresponding values for UAUUUAU are 340 nM, 2300 nM and 19.4 nM.
